Laboratory results reported in publication PMC4837482, “The complex binding mode of the peptide hormone H2 relaxin to its receptor RXFP1” (Nature Communications, 2016).
Changes are numbered by the printed parent chain.

Assays:
Assay in all cases: cAMP activity assay (pCRE β-galactosidase reporter), transfected HEK293T cells
Assay type in all cases: cell-based
[1] = target: T1, RXFP1 E67A^ins (Homo sapiens, UniProt Q9HBX9, INS89A); settings: construct E67A^ins, ±s.e.m.
T1 construct: transiently transfected human embryonic kidney (HEK) 293T cells expressing full-length RXFP1 and mutants; expressed in transfected cells; host or cells: HEK293T
T1 sequence (Q9HBX9 with tags, fused parts or gaps INS89A limits assumed): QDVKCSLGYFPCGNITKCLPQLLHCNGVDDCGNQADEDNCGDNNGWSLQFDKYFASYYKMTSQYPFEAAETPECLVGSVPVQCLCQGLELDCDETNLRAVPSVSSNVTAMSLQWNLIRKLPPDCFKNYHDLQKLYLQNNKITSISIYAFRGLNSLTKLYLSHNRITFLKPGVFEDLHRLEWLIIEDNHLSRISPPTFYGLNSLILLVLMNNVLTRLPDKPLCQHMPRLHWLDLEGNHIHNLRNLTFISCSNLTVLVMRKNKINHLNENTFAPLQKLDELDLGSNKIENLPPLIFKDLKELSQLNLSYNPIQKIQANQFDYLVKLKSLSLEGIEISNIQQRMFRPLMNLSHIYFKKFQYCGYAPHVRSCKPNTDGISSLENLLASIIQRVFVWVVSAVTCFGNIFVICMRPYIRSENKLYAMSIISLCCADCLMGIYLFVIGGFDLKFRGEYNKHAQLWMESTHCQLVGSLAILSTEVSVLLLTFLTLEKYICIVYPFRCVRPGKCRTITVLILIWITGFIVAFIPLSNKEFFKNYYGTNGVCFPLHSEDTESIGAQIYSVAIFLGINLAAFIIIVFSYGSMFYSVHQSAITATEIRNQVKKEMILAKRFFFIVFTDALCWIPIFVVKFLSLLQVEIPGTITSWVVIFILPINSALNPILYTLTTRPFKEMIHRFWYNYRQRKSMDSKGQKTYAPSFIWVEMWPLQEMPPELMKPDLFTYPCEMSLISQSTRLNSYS
Outline: (§1)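 H2 relaxin dilutions in minimal media with 1% DMSO; 5 μM Forskolin as positive control, media/1% DMSO as negative. After freezing at −80 °C, cells lysed in pH 8.0 phosphate buffers and chlorophenol red-β-D-galactopyranoside added; absorbance read at 570 nm. Responses given as % of 5 μM Forskolin maximum.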

[2] = target: T2, RXFP1 T61A (Homo sapiens, UniProt Q9HBX9, T83A); settings: construct T61A, ±s.e.m.
T2 construct: cells expressing full-length RXFP1 and mutants; expressed in transfected cells; host or cells: HEK293T
T2 sequence (Q9HBX9 23-757 T83A limits assumed): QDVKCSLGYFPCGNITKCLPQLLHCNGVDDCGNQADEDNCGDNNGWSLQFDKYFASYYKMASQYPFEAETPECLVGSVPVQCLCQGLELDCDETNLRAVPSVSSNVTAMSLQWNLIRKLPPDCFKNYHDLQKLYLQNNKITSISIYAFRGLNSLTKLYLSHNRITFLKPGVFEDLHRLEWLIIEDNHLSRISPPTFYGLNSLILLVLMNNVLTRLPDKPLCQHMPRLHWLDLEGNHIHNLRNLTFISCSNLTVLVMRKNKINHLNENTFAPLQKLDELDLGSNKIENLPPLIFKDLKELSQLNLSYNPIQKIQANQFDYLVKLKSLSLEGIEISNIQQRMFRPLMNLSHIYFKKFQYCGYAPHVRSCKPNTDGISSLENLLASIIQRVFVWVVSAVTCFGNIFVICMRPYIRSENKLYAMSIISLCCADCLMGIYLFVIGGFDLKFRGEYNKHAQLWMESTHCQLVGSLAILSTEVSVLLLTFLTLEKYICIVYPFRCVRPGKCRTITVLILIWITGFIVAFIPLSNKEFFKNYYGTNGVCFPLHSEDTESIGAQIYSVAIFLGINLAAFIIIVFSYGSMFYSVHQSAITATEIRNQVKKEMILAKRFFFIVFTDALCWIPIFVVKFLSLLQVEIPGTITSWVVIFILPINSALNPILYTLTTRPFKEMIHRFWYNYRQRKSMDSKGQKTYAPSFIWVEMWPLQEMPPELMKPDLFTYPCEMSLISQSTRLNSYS
Outline: as §1

[3] = target: T3, RXFP1 G45A (Homo sapiens, UniProt Q9HBX9, G67A); settings: construct G45A, ±s.e.m.
T3 construct: transiently transfected human embryonic kidney (HEK) 293T cells expressing full-length RXFP1 and mutants; expressed in transfected cells; host or cells: HEK293T
T3 sequence (Q9HBX9 23-757 G67A limits assumed): T2 sequence (Q9HBX9 23-757 T83A limits assumed) with G45A, A61T
Outline: as §1

[4] = percentage of maximum response to 5 μM Forskolin

H2 relaxin: two-chain 6-kDa peptide hormone structurally related to insulin; recombinant human gene-2 H2 relaxin provided by Corthera
H2 relaxin pEC50 ([1]; cAMP reporter): 11.32±0.04 (3)
H2 relaxin Emax [1, 4]: 110.15±6.43(3) %
H2 relaxin pEC50 ([2]; cAMP reporter): 11.15±0.17 (5)
H2 relaxin Emax [2, 4]: 142.58±15.97 (4) %
H2 relaxin pEC50 ([3]; cAMP reporter): 7.48±0.57 (4)
H2 relaxin Emax [3, 4]: 135.94±31.68 (4) %
